Results: paper PMC10050374
“And” between values parts separate entries of the source, which are not always exact repeats. Equal entries are not always repeated.

Target: pyruvate kinase M2 (mouse (endogenous in kidney tissue)) (UniProt P52480)
Assay: cross-linking; mouse kidney tissue incubated in 250 uM disuccinimidyl suberate (DSS) for 30 min at room temperature, 8% SDS-PAGE, Western blot for PKM2; control mice, HFD-STZ-induced DN mice, and mice given acrolein scavengers (NAC, hydralazine, carnosine)

Sequence of pyruvate kinase M2, P52480 1-531 (enzyme) (P52480 whole entry): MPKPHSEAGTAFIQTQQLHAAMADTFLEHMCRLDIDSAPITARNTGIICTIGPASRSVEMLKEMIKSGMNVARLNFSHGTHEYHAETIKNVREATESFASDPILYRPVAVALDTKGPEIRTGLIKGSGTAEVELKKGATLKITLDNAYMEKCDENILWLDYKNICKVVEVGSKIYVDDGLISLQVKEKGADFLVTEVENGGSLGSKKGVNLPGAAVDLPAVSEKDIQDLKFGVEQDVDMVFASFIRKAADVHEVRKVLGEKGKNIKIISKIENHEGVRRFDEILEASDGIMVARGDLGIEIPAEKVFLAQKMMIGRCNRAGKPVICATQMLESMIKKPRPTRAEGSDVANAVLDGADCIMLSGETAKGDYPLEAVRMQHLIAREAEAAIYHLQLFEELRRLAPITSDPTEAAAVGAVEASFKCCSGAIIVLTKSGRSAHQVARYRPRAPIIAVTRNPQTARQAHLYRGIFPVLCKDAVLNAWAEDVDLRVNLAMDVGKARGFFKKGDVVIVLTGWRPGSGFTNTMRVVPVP

Substance: pyruvate kinase M2, P52480 1-531 (enzyme)
- stoichiometry N: 2 and 4
